Publication PMC7238434 (Nature protocols, 2019)
Where no end group is shown, it is not given here.

Columns and labels:
[1] = target: p7 protein from the Hepatitis C virus (HCV) (Hepatitis C virus) (UniProt O39928); test: cross-linking
[2] = target: the molecule itself; test: cross-linking
[3] = target: transmembrane domain of Fas (Fas-TMD); test: SDS-PAGE

Work on “p7 protein from the Hepatitis C virus (HCV) (from UniProt O39928 748-810) (natural protein)” yielded a stoichiometry N [1] of 6.

In the case of RSNLGWLCLLLLPIPLIVWVKRKEVQKT-His6 (domain or fragment, also: primary amines blocked with Sulfo-NHS Acetate) [Fas-TMD with a C-terminal His6-tag], the “stoichiometry N” value [2] is reported as 3.

In the case of RSNLGWLCLLLLPIPLIVWVKRKEVQKT (domain or fragment, modifications not checked) [transmembrane domain of Fas (Fas-TMD)], the stoichiometry N [3] is reported as 3.
